In the supplement of paper PMC10724198:
± gives the standard deviation of the averaged measurements.

Columns and labels:
[1] = system: Saccharomyces cerevisiae; assay: protein stability index of tFT-peptide fusion (C-terminal peptide) (PSI (0-1 scale)); higher = more stable (slower turnover)
Experimental: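 MPS profiling in S. cerevisiae of the tFT-X12 degron library: putative degron peptides plus stable controls, 12 aa, fused to the C-terminus of a sfGFP-mCherry timer. Cells are FACS-sorted into 8 mCherry/sfGFP bins and deep-sequenced. PSI runs from 0 (unstable) to 1 (stable). Backgrounds are wild type, das1Δ and doa10Δ at 30 °C, and wild type, das1Δ, cdc34-1 and cdc53-1 at 37 °C; 2-3 technical replicates each.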

[2] = system: Saccharomyces cerevisiae; assay: as above; details: genetic background: wild type; temperature: 30 C
[3] = genetic background: cdc34-1, temperature: 37 C
[4] = genetic background: cdc53-1, temperature: 37 C
[5] = genetic background: das1 deletion, temperature: 30 C
[6] = genetic background: das1 deletion, temperature: 37 C
[7] = genetic background: doa10 deletion, temperature: 30 C
[8] = genetic background: wild type, temperature: 30 C
[9] = genetic background: wild type, temperature: 37 C
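Note: PSI is a weighted mean of sequencing reads over stability bins, variants kept only with over 10 reads, mCherry proximal and sfGFP distal, peptide attached via GGGS linker.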

Row | Sequence | protein stability index [1, 3] | protein stability index [1, 4] | protein stability index [1, 5] | protein stability index [1, 6] | protein stability index [1, 7] | protein stability index [1, 8] | protein stability index [1, 9] | protein stability index [2]
1 | RDWCYFIRVCSV | 0.604 ± 0.064 | 0.616 ± 0.017 | 0.479 ± 0.026 | 0.6139 ± 0.006 | 0.364 ± 0.015 | 0.382 ± 0.021 | 0.561 ± 0.01 | 0.383 ± 0.12
2 | RFACHDFVVLLC | 0.568 ± 0.023 | 0.605 ± 0.022 | 0.453 ± 0.017 | 0.626 ± 0.026 | 0.172 ± 0.0095 | 0.17 ± 0.029 | 0.303 ± 0.017 | 0.289 ± 0.0045
3 | RFFLFVFFCFGF | 0.384 ± 0.0046 | 0.387 ± 0.038 | 0.383 ± 0.034 | 0.4787 ± 0.0021 | 0.402 ± 0.0047 | 0.365 ± 0.045 | 0.437 ± 0.013 | 0.436 ± 0.014
4 | RFLCFDSVLTLC | 0.626 ± 0.011 | 0.6674 ± 0.0055 | 0.56 ± 0.028 | 0.6748 ± 0.00086 | 0.32119 ± 0.00015 | 0.348 ± 0.026 | 0.546 ± 0.02 | 0.463 ± 0.024
5 | RFQKTRIFRCLC | 0.455 ± 0.002 | 0.66 ± 0.015 | 0.57 ± 0.022 | 0.6796 ± 0.0058 | 0.0979 ± 0.0052 | 0.117 ± 0.015 | 0.137 ± 0.0058 | 0.18 ± 0.028
6 | RFTCCISLSFLM | 0.498 ± 0.013 | 0.492 ± 0.044 | 0.467 ± 0.011 | 0.472 ± 0.014 | 0.491 ± 0.059 | 0.489 ± 0.033 | 0.4341 ± 0.0021 | 0.489 ± 0.01
7 | RFTFSVVFCLSF | 0.465 ± 0.011 | 0.5 ± 0.018 | 0.432 ± 0.011 | 0.504 ± 0.023 | 0.451 ± 0.022 | 0.436 ± 0.026 | 0.47 ± 0.012 | 0.47 ± 0.038
8 | RGDWPVFIQVKA | 0.285 ± 0.032 | 0.309 ± 0.04 | 0.262 ± 0.035 | 0.426 ± 0.022 | 0.205 ± 0.022 | 0.255 ± 0.043 | 0.387 ± 0.023 | 0.418 ± 0.05
9 | RGGGGGTWVKMG | 0.592 ± 0.011 | 0.733 ± 0.0075 | 0.653 ± 0.029 | 0.758 ± 0.012 | 0.118 ± 0.025 | 0.135 ± 0.02 | 0.217 ± 0.016 | 0.258 ± 0.055
10 | RHCCIVPLCRVR | 0.491 ± 0.061 | 0.512 ± 0.013 | 0.324 ± 0.028 | 0.555 ± 0.028 | 0.285 ± 0.013 | 0.321 ± 0.028 | 0.507 ± 0.0081 | 0.464 ± 0.045
11 | RHSFSRVKLIQF | 0.593 ± 0.046 | 0.6834 ± 0.00096 | 0.65 ± 0.032 | 0.732 ± 0.0089 | 0.0871 ± 0.021 | 0.0925 ± 0.033 | 0.117 ± 0.0029 | 0.113 ± 0.033
12 | RILKEFKRIAVL | 0.501 ± 0.05 | 0.687 ± 0.092 | 0.479 ± 0.024 | 0.7193 ± 0.006 | 0.093 ± 0.0061 | 0.0985 ± 0.016 | 0.139 ± 0.032 | 0.168 ± 0.031
13 | RIYIRVSLIAPR | 0.523 ± 0.026 | 0.59 ± 0.05 | 0.48 ± 0.021 | 0.5646 ± 0.0015 | 0.496 ± 0.034 | 0.48 ± 0.014 | 0.537 ± 0.017 | 0.509 ± 0.14
14 | RLFMVLYRRFVL | 0.67 ± 0.052 | 0.72 ± 0.013 | 0.626 ± 0.019 | 0.716 ± 0.018 | 0.443 ± 0.015 | 0.45 ± 0.023 | 0.608 ± 0.016 | 0.491 ± 0.069
15 | RLVWGGLEMFVC | 0.511 ± 0.024 | 0.627 ± 0.013 | 0.496 ± 0.026 | 0.654 ± 0.0094 | 0.109 ± 0.019 | 0.131 ± 0.0028 | 0.21 ± 0.0073 | 0.235 ± 0.043
16 | RPALVSIFLSAY | 0.555 ± 0.018 | 0.567 ± 0.023 | 0.4 ± 0.023 | 0.553 ± 0.0066 | 0.38 ± 0.017 | 0.38 ± 0.021 | 0.532 ± 0.0076 | 0.444 ± 0.027
17 | RPLRRPRLPLLL | 0.654 ± 0.014 | 0.698 ± 0.025 | 0.646 ± 0.0082 | 0.6926 ± 0.0026 | 0.363 ± 0.011 | 0.397 ± 0.035 | 0.581 ± 0.01 | 0.4634 ± 0.0032
18 | RQFRNPLYAFVC | 0.496 ± 0.043 | 0.687 ± 0.011 | 0.566 ± 0.019 | 0.697 ± 0.014 | 0.124 ± 0.0069 | 0.137 ± 0.0092 | 0.187 ± 0.035 | 0.193 ± 0.021
19 | RQRQLAKKQKNA | 0.601 ± 0.043 | 0.7044 ± 0.0043 | 0.646 ± 0.0074 | 0.73 ± 0.0076 | 0.141 ± 0.032 | 0.181 ± 0.021 | 0.306 ± 0.038 | 0.322 ± 0.016
20 | RRFKINKKNKKF | 0.683 ± 0.028 | 0.749 ± 0.035 | 0.64 ± 0.048 | 0.761 ± 0.016 | 0.172 ± 0.026 | 0.189 ± 0.061 | 0.524 ± 0.12 | 0.339 ± 0.052
